Test results from patent publication US20170233472A1 (MacroGenics, published 2017).

How the values were obtained:
[1] = biological target: T1, human ROR1 expressed on the surface of cancer cells (human, UniProt Q01973 30-937); experiment: cell-based or functional assay
[2] = biological target: T2, His-tagged soluble human ROR1 (shROR1-His) (human, UniProt Q01973 30-406); experiment: SPR (Biacore), shROR1-His captured on anti-PentaHis surface, diabody 6.25-100 nM as analyte
T2 construct: also called ROR1 protein; immobilized ROR1; not shown: His-Tag
Procedure: The binding affinity of DART-1, DART-A, DART-B, and DART-C was investigated using Biacore analysis in which each diabody construct was passed over immobilized ROR1. Briefly, shROR1-His was captured on immobilized anti-PentaHis surface and was incubated with DART-1, DART-A, DART-B or DART-C at 6.25-100 nM, and the kinetics of binding was determined via Biacore analysis.

[3] = biological target: T2, His-tagged soluble human ROR1 …; experiment: sandwich ELISA: plate coated with shROR1-His, serial dilutions of diabody, bound diabody detected with biotinylated CD3 and streptavidin-HRP; abs @450nm
Procedure: (§1) The ability of the bispecific ROR1×CD3 two and three chain diabodies DART-1 and DART-A to bind both ROR1 and CD3 was examined by a sandwich ELISA. Briefly, microtiter plates were coated with shROR1-His, the plates were washed and incubated with three-fold serial dilutions of DART-1 or DART-A. The amount of diabody binding to the immobilized ROR1 was assessed using a biotinylated CD3 detected with Streptavidin-HRP. All samples were analyzed on a plate reader and binding curves generated. […] The cells were washed twice incubated with biotin-conjugated mouse anti-EK-coil antibody that recognizes the E-coil/K-coil (EK) heterodimerization region (100 μL of 1 μg/mL mixed with 1:500 diluted streptavidin-phycoerythrin) for 45 min. The cells were then washed and resuspended with FACS buffer, and analyzed with a BD FCS Canto II flow cytometer using FlowJo v10 software.

[4] = biological target: T2, His-tagged soluble human ROR1 …; experiment: sandwich ELISA: plate coated with shROR1-His, serial dilutions of diabody, bound diabody detected with biotinylated CD3 and streptavidin-HRP; y axis 'Mean Value'
Procedure: as §1

[5] = biological target: T2, His-tagged soluble human ROR1 …; experiment: SPR (Biacore)
[6] = biological target: T1, human ROR1 expressed on the surface of …; experiment: cell-based or functional assay; remark: listed apart in the source
[7] = biological target: T2, His-tagged soluble human ROR1 …; experiment: SPR (Biacore), diabody captured via anti-E/K-coil, shROR1-His as analyte
Procedure: The binding kinetics of DART-1 to DART-6, DART-10 to DART-17, DART-20 to DART-33 was investigated using Biacore analysis in which ROR1 protein was passed over immobilized diabodies. Briefly, each diabody construct was captured on immobilized anti-E/K-coil surface and was incubated with shROR1-His at 25 and 100 nM, and the kinetics of binding were determined via Biacore analysis.

T2 sequence (Q01973 30-406): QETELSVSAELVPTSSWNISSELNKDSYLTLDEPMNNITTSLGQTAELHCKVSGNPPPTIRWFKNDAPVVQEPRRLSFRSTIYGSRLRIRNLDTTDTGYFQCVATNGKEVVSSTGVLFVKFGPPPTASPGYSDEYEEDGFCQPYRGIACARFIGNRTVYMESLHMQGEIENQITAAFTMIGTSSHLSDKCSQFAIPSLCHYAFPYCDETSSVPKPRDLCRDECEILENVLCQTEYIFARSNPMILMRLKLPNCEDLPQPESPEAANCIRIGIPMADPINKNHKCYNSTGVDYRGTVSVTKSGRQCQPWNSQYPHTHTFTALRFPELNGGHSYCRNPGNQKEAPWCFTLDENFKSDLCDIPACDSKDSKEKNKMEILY
T1 sequence (Q01973 30-937): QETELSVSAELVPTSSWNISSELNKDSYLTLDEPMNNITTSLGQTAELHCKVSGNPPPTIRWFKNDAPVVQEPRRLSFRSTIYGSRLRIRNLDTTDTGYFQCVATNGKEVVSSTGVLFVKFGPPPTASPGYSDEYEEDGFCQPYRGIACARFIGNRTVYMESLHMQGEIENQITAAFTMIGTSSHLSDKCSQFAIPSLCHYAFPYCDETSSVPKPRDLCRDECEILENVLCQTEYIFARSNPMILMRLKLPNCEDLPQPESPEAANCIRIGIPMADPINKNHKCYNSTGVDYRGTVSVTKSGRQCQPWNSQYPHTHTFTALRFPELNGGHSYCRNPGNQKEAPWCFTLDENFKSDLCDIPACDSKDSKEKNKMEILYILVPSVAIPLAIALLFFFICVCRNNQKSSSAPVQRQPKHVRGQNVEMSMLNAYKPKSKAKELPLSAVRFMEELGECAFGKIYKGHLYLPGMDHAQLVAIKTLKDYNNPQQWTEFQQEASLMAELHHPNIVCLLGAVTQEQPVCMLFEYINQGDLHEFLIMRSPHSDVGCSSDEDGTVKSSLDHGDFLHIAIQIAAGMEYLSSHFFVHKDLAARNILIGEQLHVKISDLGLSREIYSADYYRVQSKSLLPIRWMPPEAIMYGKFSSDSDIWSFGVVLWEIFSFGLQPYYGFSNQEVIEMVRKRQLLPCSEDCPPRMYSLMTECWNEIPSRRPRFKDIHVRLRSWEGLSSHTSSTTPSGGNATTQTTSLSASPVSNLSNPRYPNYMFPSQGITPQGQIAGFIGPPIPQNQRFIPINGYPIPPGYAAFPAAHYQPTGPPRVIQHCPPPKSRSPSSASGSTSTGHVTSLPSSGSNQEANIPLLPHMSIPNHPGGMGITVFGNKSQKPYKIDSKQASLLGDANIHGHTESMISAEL

Row | Binder | Kd [2] [nM] | EC50 (read off the curve) [3] [nM] | EC50 (read off the curve) [4] [nM] | Kd [7] [nM] | further results
1 | DART-A (bispecific antibody, IgG1, Three chain Fc Region-containing diabody (knob/hole IgG1 CH2-CH3 with L234A/L235A); C-terminal lysine of the Fc chains may be removed post-translationally; also called ROR1×CD3 bispecific three chain diabody with parental anti-ROR1-VL and anti-ROR1-VH) chain 1: QLVLTQSPSASASLGSSVKLTCTLSSGHKTDTIDWYQQQPGKAPRYLMKLEGSGSYNKGSGVPDRFGSGSSSGADRYLTISSLQSEDEADYYCGTDYPGNYLFGGGTQLTVLGGGGSGGGGEVQLVESGGGLVQPGGSLRLSCAASGFTFSTYAMNWVRQAPGKGLEWVGRIRSKYNNYATYYADSVKGRFTISRDDSKNSLYLQMNSLKTEDTAVYYCVRHGNFGNSYVSWFAYWGQGTLVTVSSASTKGEVAACEKEVAALEKEVAALEKEVAALEKGGGDKTHTCPPCPAPEAAGGPSVFLFPPKPKDTLMISRTPEVTCVVVDVSHEDPEVKFNWYVDGVEVHNAKTKPREEQYNSTYRVVSVLTVLHQDWLNGKEYKCKVSNKALPAPIEKTISKAKGQPREPQVYTLPPSREEMTKNQVSLWCLVKGFYPSDIAVEWESNGQPENNYKTTPPVLDSDGSFFLYSKLTVDKSRWQQGNVFSCSVMHEALHNHYTQKSLSLSPGK chain 2: QAVVTQEPSLTVSPGGTVTLTCRSSTGAVTTSNYANWVQQKPGQAPRGLIGGTNKRAPWTPARFSGSLLGGKAALTITGAQAEDEADYYCALWYSNLWVFGGGTKLTVLGGGGSGGGGQEQLVESGGGLVQPGGSLRLSCAASGFTFSDYYMSWVRQAPGKGLEWVATIYPSSGKTYYADSVKGRFTISSDNAKNSLYLQMNSLRAEDTAVYYCARDSYADDAALFDIWGQGTTVTVSSASTKGKVAACKEKVAALKEKVAALKEKVAALKE chain 3: not shown | 0.69 | ~2 | ~1 | – | EC50 nM, redirected cell killing of Calu-3 cells by pan T-cells (LDH release) [1]: 0.196 nM; EC50 nM, redirected cell killing of JIMT-1 cells by pan T-cells (LDH release) [1]: 0.161 nM; EC50 nM, redirected cell killing of NCI-H1975 cells by pan T-cells (LDH release) [1]: 0.266 nM
2 | DART-C (bispecific antibody, Three chain Fc Region-containing ROR1×CD3 diabody) chain 1: QLVLTQSPSASASLGSSVKLTCTLSSGHKTDTIDWYQQQPGKAPRYLMKLEGSGSYNKGSGVPDRFSGSSSGADWYLTISSLQSEDEADYYCGTDYPGNYLFGGGTQLTVLGGGGSGGGGEVQLVESGGGLVQPGGSLRLSCAASGFTFSTYAMNWVRQAPGKGLEWVGRIRSKYNNYATYYADSVKGRFTISRDDSKNSLYLQMNSLKTEDTAVYYCVRHGNFGNSYVSWFAYWGQGTLVTVSSASTKGEVAACEKEVAALEKEVAALEKEVAALEKGGGDKTHTCPPCPAPEAAGGPSVFLFPPKPKDTLMISRTPEVTCVVVDVSHEDPEVKFNWYVDGVEVHNAKTKPREEQYNSTYRVVSVLTVLHQDWLNGKEYKCKVSNKALPAPIEKTISKAKGQPREPQVYTLPPSREEMTKNQVSLWCLVKGFYPSDIAVEWESNGQPENNYKTTPPVLDSDGSFFLYSKLTVDKSRWQQGNVFSCSVMHEALHNHYTQKSLSLSPGK chain 2: QAVVTQEPSLTVSPGGTVTLTCRSSTGAVTTSNYANWVQQKPGQAPRGLIGGTNKRAPWTPARFSGSLLGGKAALTITGAQAEDEADYYCALWYSNLWVFGGGTKLTVLGGGGSGGGGQEQLVESGGGLVQPGGSLRLSCAASGFTFSDYYMSWVRQAPGKGLEWVATIYPSSGKTYYADSVKGRLTISSDNAKDSLYLQMNSLRAEDTAVYYCTRDSYADDAALFDIWGQGTTVTVSSASTKGKVAACKEKVAALKEKVAALKEKVAALKE chain 3: not shown | 0.25 | – | ~0.8 | – | fold enhancement of binding relative to DART-A [5]: > 2 fold
3 | DART-B (bispecific antibody, Three chain Fc Region-containing ROR1×CD3 diabody; VH: parental) chain 1: QLVLTQSPSASASLGSSVKLTCTLSSGHKTDTIDWYQQQPGKAPRYLMKLEGSGSYNKGSGVPDRFSGSSSGADRYLTISSLQSEDEADYYCGTDYPGNYLFGGGTQLTVLGGGGSGGGGEVQLVESGGGLVQPGGSLRLSCAASGFTFSTYAMNWVRQAPGKGLEWVGRIRSKYNNYATYYADSVKGRFTISRDDSKNSLYLQMNSLKTEDTAVYYCVRHGNFGNSYVSWFAYWGQGTLVTVSSASTKGEVAACEKEVAALEKEVAALEKEVAALEKGGGDKTHTCPPCPAPEAAGGPSVFLFPPKPKDTLMISRTPEVTCVVVDVSHEDPEVKFNWYVDGVEVHNAKTKPREEQYNSTYRVVSVLTVLHQDWLNGKEYKCKVSNKALPAPIEKTISKAKGQPREPQVYTLPPSREEMTKNQVSLWCLVKGFYPSDIAVEWESNGQPENNYKTTPPVLDSDGSFFLYSKLTVDKSRWQQGNVFSCSVMHEALHNHYTQKSLSLSPGK chain 2: QAVVTQEPSLTVSPGGTVTLTCRSSTGAVTTSNYANWVQQKPGQAPRGLIGGTNKRAPWTPARFSGSLLGGKAALTITGAQAEDEADYYCALWYSNLWVFGGGTKLTVLGGGGSGGGGQEQLVESGGGLVQPGGSLRLSCAASGFTFSDYYMSWVRQAPGKGLEWVATIYPSSGKTYYADSVKGRFTISSDNAKNSLYLQMNSLRAEDTAVYYCARDSYADDAALFDIWGQGTTVTVSSASTKGKVAACKEKVAALKEKVAALKEKVAALKE chain 3: not shown | 0.65 | – | – | – | –
4 | DART-1 (bispecific antibody, VL: parental; VH: parental; also called ROR1×CD3 bispecific two chain diabody with parental anti-ROR1-VL and anti-ROR1-VH) chain 1: QLVLTQSPSASASLGSSVKLTCTLSSGHKTDTIDWYQQQPGKAPRYLMKLEGSGSYNKGSGVPDRFGSGSSSGADRYLTISSLQSEDEADYYCGTDYPGNYLFGGGTQLTVLGGGGSGGGGEVQLVESGGGLVQPGGSLRLSCAASGFTFSTYAMNWVRQAPGKGLEWVGRIRSKYNNYATYYADSVKGRFTISRDDSKNSLYLQMNSLKTEDTAVYYCVRHGNFGNSYVSWFAYWGQGTLVTVSSGGCGGGKVAALKEKVAALKEKVAALKEKVAALKE chain 2: QAVVTQEPSLTVSPGGTVTLTCRSSTGAVTTSNYANWVQQKPGQAPRGLIGGTNKRAPWTPARFSGSLLGGKAALTITGAQAEDEADYYCALWYSNLWVFGGGTKLTVLGGGGSGGGGQEQLVESGGGLVQPGGSLRLSCAASGFTFSDYYMSWVRQAPGKGLEWVATIYPSSGKTYYADSVKGRFTISSDNAKNSLYLQMNSLRAEDTAVYYCARDSYADDAALFDIWGQGTTVTVSSGGCGGGEVAALEKEVAALEKEVAALEKEVAALEK | – | ~2 | – | 4 | MR(%) (maximum response), redirected cell killing of HBL-2 cells (LDH release) [6]: 28.5%; MR(%) (maximum response), redirected cell killing of JIMT-1 cells (LDH release) [6]: 42.4%; MR(%) (maximum response), redirected cell killing of Jeko-1 cells (LDH release) [6]: 37.4%
5 | DART-32 (bispecific antibody, ROR1×CD3 two chain diabody) chain 1: QLVLTQSPSASASLGSSVKLTCTLSSGHKTDTIDWYQQQPGKAPRYLMKLEGSGSYNKGSGVPDRFSGSSSGADWYLTISSLQSEDEADYYCGTDYPGNYLFGGGTQLTVLGGGGSGGGGEVQLVESGGGLVQPGGSLRLSCAASGFTFSTYAMNWVRQAPGKGLEWVGRIRSKYNNYATYYADSVKGRFTISRDDSKNSLYLQMNSLKTEDTAVYYCVRHGNFGNSYVSWFAYWGQGTLVTVSSGGCGGGKVAALKEKVAALKEKVAALKEKVAALKE chain 2: QAVVTQEPSLTVSPGGTVTLTCRSSTGAVTTSNYANWVQQKPGQAPRGLIGGTNKRAPWTPARFSGSLLGGKAALTITGAQAEDEADYYCALWYSNLWVFGGGTKLTVLGGGGSGGGGQEQLVESGGGLVQPGGSLRLSCAASGFTFSDYYMSWVRQAPGKGLEWVATIYPSSGKTYYADSVKGRLTISSDNAKDSLYLQMNSLRAEDTAVYYCTRDSYADDAALFDIWGQGTTVTVSSGGCGGGEVAALEKEVAALEKEVAALEKEVAALEK | – | – | – | 1.1 | fold enhancement of binding relative to DART-1 [5]: > 2 fold
